For this test, the target named is Shh-AP fusion protein (Sonic hedgehog fused to alkaline phosphatase). Description: ligand-receptor binding study, Scatchard analysis (FIG. 3).

We go through one molecule from patent US20030143595A1.

What is called Kd is the equilibrium constant for the complex coming apart. Read a low Kd as a tighter complex.

Chain of Shh-AP fusion protein (Sonic hedgehog fused to alkaline phosphatase) (Q62226 25-198): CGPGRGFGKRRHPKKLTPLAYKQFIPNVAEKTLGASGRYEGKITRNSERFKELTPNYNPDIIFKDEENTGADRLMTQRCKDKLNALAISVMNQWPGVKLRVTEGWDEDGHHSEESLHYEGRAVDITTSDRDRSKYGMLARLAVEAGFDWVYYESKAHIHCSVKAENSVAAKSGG

B1: murine HIP polypeptide (mouse hedgehog interacting protein) (receptor)
chain: LGFFEGDAKFGERSEGSGARRRRCLNGNPPKRLKRRDRRVMSQLELLSGGEILCGGFYPRVSCCLQSDSPGLGRLENKIFSATNNSECSRLLEEIQCAPCSPHSQSLFYTPERDVLDGDLALPLLCKDYCKEFFYTCRGHIPGLLQTTADEFCFYYARKDAGLCFPDFPRKQVRGPASNYLGQMEDYEKVGGISRKHKHNCLCVQEVMSGLRQPVSAVHSGDGSHRLFILEKEGYVKILTPEGELFKEPYLDIHKLVQSGIKGGDERGLLSLAFHPNYKKNGKLYVSYTTNQERWAIGPHDHILRVVEYTVSRKNPHQVDVRTARVFLEVAELHRKHLGGQLLFGPDGFLYIILGDGMITLDDMEEMDGLSDFTGSVLRLDVDTDMCNVPYSIPRSNPHFNSTNQPPEVFAHGLHDPGRCAVDRHPTDININLTILCSDSNGKNRSSARILQIIKGRDYESEPSLLEFKPFSNGPLVGGFVYRGCQSERLYGSYVFGDRNGNFLTLQQSPVTKQWQEKPLCLGASSSCRGYFSGHILGFGEDELGEVYILSSSKSMTQTHNGKLYKIVDPKRPLMPEECRVTVQPAQPLTSDCSRLCRNGYYTPTGKCCCSPGWEGDFCRIAKCEPACRHGGVCVRPNKCLCKKGYLGPQCEQVDRNVRRVTRAGILDQIIDMTSYLLDLTSYIV
Consider B1, for which the dissociation constant Kd was 1 nM.
